From patent publication CN105968202A (UNIV NANCHANG, dated 2016)

Legend:
[1] = molecular target: T1, PSMA on LNCaP cells (前列腺癌细胞LNCaP表达PSMA) (UniProt Q04609 1-750, limits assumed); test: cell ELISA (HRP-anti-M13, OD450) and immunofluorescence (anti-M13 + FITC secondary) on fixed LNCaP cells versus PSMA-negative MKN45 cells
T1 construct: whole, on cells; Endogenous PSMA on fixed LNCaP cells; PSMA-negative MKN45 gastric cancer cells served as the negative cell line; also called 前列腺特异性膜抗原

[2] = molecular target: T2, PSMA胞外区蛋白 (重组表达的前列腺特异性膜抗原膜外区) (UniProt Q04609 44-750, limits assumed); test: indirect phage-ELISA, PSMA extracellular region coated at 5 μg/mL, HRP-anti-M13 detection (ELISA-positive clone)
T2 construct: extracellular domain; Expressed from vector pRAG2a in HEK-293 cells, purified with HisTrap FF Crude and detected with anti-His antibody, so it carries a His tag; also called PSMA蛋白; PSMA抗原
T2 sequence (Q04609 44-750 limits assumed): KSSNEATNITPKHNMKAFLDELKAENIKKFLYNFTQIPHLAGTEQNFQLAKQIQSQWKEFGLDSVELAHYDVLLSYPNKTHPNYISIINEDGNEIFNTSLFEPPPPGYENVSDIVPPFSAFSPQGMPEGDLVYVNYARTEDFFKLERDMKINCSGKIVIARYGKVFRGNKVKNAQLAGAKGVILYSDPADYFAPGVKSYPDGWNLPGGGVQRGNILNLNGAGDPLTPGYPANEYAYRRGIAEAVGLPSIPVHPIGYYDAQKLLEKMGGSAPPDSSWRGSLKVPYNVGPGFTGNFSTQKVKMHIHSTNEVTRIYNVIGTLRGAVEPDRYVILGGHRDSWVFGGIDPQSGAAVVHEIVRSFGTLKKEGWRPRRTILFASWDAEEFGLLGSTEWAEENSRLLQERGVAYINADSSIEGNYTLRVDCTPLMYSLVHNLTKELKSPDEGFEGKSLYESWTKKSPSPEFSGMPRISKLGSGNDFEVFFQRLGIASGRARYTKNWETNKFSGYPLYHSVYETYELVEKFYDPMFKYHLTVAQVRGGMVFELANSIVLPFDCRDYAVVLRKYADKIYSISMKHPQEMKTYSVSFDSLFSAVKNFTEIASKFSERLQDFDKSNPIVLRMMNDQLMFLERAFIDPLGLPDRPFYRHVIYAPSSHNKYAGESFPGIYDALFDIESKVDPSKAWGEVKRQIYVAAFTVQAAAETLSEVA

T1 sequence (Q04609 whole entry): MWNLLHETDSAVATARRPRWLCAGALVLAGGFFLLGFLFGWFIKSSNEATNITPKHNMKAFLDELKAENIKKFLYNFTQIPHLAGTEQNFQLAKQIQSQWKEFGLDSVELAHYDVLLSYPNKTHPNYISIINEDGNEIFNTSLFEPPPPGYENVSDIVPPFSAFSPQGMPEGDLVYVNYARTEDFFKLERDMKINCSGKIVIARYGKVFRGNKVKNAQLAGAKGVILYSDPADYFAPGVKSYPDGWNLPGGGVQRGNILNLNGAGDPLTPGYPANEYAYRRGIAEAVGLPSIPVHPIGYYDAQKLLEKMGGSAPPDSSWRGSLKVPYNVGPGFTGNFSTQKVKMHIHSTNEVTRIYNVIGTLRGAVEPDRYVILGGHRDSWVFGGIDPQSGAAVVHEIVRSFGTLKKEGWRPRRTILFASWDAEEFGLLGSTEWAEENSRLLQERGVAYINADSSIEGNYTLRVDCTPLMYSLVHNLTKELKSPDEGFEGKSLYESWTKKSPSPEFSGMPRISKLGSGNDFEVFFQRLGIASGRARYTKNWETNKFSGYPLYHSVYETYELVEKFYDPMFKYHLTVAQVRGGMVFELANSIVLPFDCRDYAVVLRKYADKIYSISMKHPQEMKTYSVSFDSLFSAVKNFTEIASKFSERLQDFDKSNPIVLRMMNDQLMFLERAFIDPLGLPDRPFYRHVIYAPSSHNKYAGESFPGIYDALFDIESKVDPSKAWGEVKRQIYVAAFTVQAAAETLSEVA

B1: 抗前列腺特异性膜抗原单域重链抗体噬菌体阳性克隆 (VHH)
VHH: QVQLVESGGGLVQAGGSLRLSCVVSGRAFRRYAMGWFRQAPGKEREFVAAIRRSRSTYYADSVKGRFTISRDNAKKTVYLQMNSLKPEDTAVYYCAADPVDSVYNTLRAWGYWGQGTQVTVSS
notes: The phage coat protein fusion partner and any linker are not described; also called 针对前列腺特异性膜抗原的单域重链抗体阳性克隆; 展示本发明所述纳米抗体的噬菌体克隆
[1]
  binding result: binds
[2]
  binding result: binds
